Consider 1 molecule from publication PMC5377317, “Generation of Aptamers from A Primer-Free Randomized ssDNA Library Using Magnetic-Assisted Rapid Aptamer Selection”.

This data set addresses T1, C-reactive protein (CRP) (human, UniProt P02741 19-224).
T1 sequence: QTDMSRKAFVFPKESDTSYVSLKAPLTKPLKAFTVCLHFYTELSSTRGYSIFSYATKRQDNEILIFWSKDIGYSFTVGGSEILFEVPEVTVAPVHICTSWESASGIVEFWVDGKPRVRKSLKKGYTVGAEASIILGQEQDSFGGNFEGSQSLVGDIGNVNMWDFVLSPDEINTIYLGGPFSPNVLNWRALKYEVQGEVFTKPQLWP
In words: magnetic bead pull-down with q-PCR, saturation fit; apparent Kd; 2 mM MgCl2; CRP-MNPs; BD buffer: 50 mM NaH2PO4 pH 8.0, 150 mM NaCl, 5 mM KCl, 2 mM MgCl2, 0.05% Tween-20; room temperature, 30 min; aptamer 1.5625-200 nM. The following applies: protein: commercial; tags: biotinylated (EZ-Link Sulfo-NHS-Biotin), on streptavidin magnetic nanoparticles; chain copies: 5; single strand, small loop predicted by Mfold (dG -2.93 kcal/mol).

Consider GTTGACGGGCGATTGGTCTT (ssDNA) [PF20N-RO-MARAS-84-1], for which the Kd was 23.6 ± 0.82 nM.
